Patent US7196244

What was measured:
[1] = target: T1, Mos1 transposase (Drosophila mauritiana) (UniProt Q7JQ07); test: cell_activity; conditions: glh-2 promoter, C. elegans germline
T1 sequence: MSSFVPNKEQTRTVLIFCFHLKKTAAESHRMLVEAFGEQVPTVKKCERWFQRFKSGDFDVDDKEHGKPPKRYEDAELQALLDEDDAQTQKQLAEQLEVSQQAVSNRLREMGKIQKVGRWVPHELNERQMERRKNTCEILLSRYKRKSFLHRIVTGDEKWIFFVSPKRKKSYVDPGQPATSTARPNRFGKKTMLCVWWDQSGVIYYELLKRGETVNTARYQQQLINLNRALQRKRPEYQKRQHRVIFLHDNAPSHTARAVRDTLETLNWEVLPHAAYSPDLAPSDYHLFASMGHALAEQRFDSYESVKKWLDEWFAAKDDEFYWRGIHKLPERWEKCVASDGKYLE

[2] = test system: TC3A transposase (Caenorhabditis elegans); test: cell_activity; conditions: ced-9 promoter; 0.1% with glh-2 promoter

Substance: Mos1 transposon in integrated array oxIs25
- activity (% chromosomes with catastrophic excision) [1]: 20.9

Substance: Tc3 element in unc-22(r750::Tc3)
- activity (% germline reversion) [2]: 2
